Source: patent publication US20210130436A1 (published 2021)

T1: CD226 (Homo sapiens (Human), UniProt Q15762 19-336)
T1 sequence: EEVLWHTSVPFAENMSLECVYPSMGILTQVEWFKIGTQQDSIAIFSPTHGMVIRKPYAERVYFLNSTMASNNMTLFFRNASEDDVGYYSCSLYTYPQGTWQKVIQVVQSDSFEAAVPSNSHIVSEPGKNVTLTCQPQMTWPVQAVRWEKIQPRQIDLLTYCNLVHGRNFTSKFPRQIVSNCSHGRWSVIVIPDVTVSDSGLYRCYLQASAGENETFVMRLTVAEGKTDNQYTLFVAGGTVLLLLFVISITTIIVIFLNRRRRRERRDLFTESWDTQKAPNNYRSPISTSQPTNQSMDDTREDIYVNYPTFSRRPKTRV

T2: TIGIT (Homo sapiens (Human), UniProt Q495A1 22-244)
T2 sequence: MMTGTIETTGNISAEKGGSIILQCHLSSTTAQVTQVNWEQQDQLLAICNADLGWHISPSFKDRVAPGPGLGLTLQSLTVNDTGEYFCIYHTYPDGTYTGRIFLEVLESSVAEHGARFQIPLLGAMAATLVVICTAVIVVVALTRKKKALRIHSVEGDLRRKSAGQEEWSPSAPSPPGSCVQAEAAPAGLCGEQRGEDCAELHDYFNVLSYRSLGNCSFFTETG

T3: CD96 (UniProt P40200 22-585, limits assumed)
T3 construct: whole, on cells
T3 sequence (looked up): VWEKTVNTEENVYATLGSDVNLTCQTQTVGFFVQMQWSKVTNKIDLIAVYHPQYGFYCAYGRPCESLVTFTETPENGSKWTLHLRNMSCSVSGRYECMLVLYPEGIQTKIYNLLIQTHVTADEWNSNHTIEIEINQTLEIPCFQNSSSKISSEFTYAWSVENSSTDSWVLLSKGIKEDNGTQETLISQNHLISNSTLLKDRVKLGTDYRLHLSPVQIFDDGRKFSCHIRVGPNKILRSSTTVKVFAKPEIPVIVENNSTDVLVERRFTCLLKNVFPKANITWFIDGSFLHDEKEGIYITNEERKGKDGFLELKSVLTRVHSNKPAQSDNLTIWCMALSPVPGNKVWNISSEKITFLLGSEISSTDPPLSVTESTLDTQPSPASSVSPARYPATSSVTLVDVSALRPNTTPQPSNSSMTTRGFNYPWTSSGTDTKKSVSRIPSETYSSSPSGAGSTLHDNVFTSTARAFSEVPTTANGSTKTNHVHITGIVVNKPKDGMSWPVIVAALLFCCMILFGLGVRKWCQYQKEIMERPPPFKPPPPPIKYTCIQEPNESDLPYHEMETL


Assays:
[1] = biological target: T4, CD28 endogenously expressed on Jurkat/IL2 reporter cells (human, UniProt P10747 19-220); test: flow cytometry, Jurkat cells (CD28)
T4 construct: also called Jurkats (CD28)

[2] = biological target: T5, human PD-L1, full-length, on CHO cells (human, UniProt Q9NZQ7 19-290); test: flow cytometry; PD-L1 MFI over CD28 MFI
T5 construct: also called huPD-L1; CD274
T5 sequence (Q9NZQ7 19-290): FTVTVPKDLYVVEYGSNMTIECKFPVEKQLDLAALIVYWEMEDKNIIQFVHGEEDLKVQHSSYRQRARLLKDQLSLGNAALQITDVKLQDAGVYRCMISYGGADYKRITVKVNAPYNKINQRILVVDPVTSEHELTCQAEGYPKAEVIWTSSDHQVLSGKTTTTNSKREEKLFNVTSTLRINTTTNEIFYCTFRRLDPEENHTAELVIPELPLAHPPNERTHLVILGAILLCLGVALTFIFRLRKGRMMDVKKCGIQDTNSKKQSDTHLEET

[3] = biological target: T6, human CTLA4 (CTLA-4), full-length, on CHO cells (human, UniProt P16410 36-223); test: flow cytometry, CHO cells stably expressing CTLA4
T6 construct: also called huCTLA4
T6 sequence (P16410 36-223): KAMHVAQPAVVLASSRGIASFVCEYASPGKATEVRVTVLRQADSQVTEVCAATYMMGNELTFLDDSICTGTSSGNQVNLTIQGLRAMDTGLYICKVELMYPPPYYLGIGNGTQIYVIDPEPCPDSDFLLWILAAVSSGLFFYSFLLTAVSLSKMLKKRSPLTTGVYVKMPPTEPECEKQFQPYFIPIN

[4] = biological target: T4, CD28 endogenously expressed on …; test: flow cytometry, Jurkat cells (CD28); MFI relative to WT CD80 ECD-Fc
[5] = biological target: T5, human PD-L1, full-length, on CHO cells; test: flow cytometry, CHO/PD-L1 cells; MFI relative to WT CD80 ECD-Fc
[6] = biological target: T5, human PD-L1, full-length, on CHO cells; test: flow cytometry, CHO cells stably expressing PD-L1
[7] = biological target: T6, human CTLA4 (CTLA-4), full-length, on …; test: flow cytometry, CHO/CTLA4 cells; MFI relative to WT CD80 ECD-Fc
CD226 = biological target: T1, CD226; test: flow cytometry, Fc fusion at 100 nM, CD226-transfected cells
TIGIT = biological target: T2, TIGIT; test: flow cytometry, Fc fusion at 100 nM, TIGIT-transfected cells
CD96 = biological target: T3, CD96; test: flow cytometry, Fc fusion at 100 nM, CD96-transfected cells

Row | Binder | MFI at 33.3 nM [1] [MFI] | Ratio of PDL1:CD28 [2] [ratio] | MFI at 33.3 nM [3] [MFI] | Fold change to WT CD80 [4] [fold] | Fold change to WT CD80 [5] [fold] | MFI at 33.3 nM [6] [MFI] | Fold change to WT CD80 [7] [fold] | MFI at 100 nM (CD226) [MFI] | MFI at 100 nM (TIGIT) [MFI] | MFI at 100 nM (CD96) [MFI]
1 | variant CD80 IgV-Fc M47V/N48K (Fc fusion, not shown: small tags and cut ends; a dimerising Fc or GST) VIHVTKEVKEVATLSCGHNVSVEELAQTRIYWQKEKKMVLTMMSGDVKIWPEYKNRTIFDITNNLSIVILALRPSDEGTYECVVLKYEKDAFKREHLAEVTLSVKAD | 413 | 7.5 | 44600 | 0.6 | 24.1 | 3080 | 1.1 |  |  | 
2 | variant CD80 IgV-Fc V68M (Fc fusion, not shown: small tags and cut ends; a dimerising Fc or GST) VIHVTKEVKEVATLSCGHNVSVEELAQTRIYWQKEKKMVLTMMSGDMNIWPEYKNRTIFDITNNLSIMILALRPSDEGTYECVVLKYEKDAFKREHLAEVTLSVKAD | 37.9 | 3.1 | 568 | 0.1 | 0.9 | 118 | 0 |  |  | 
3 | variant CD80 IgV-Fc V68M/L85Q (Fc fusion, not shown: small tags and cut ends; a dimerising Fc or GST) VIHVTKEVKEVATLSCGHNVSVEELAQTRIYWQKEKKMVLTMMSGDMNIWPEYKNRTIFDITNNLSIMILALRPSDEGTYECVVQKYEKDAFKREHLAEVTLSVKAD | 91.7 | 3.8 | 3290 | 0.1 | 2.7 | 347 | 0.1 |  |  | 
4 | variant CD80 IgV-Fc M47V/V68M (Fc fusion, not shown: small tags and cut ends; a dimerising Fc or GST) VIHVTKEVKEVATLSCGHNVSVEELAQTRIYWQKEKKMVLTMMSGDVNIWPEYKNRTIFDITNNLSIMILALRPSDEGTYECVVLKYEKDAFKREHLAEVTLSVKAD | 328 | 13.1 | 7280 | 0.5 | 33.5 | 4290 | 0.2 |  |  | 
5 | variant CD80 IgV-Fc N48K (Fc fusion, not shown: small tags and cut ends; a dimerising Fc or GST) VIHVTKEVKEVATLSCGHNVSVEELAQTRIYWQKEKKMVLTMMSGDMKIWPEYKNRTIFDITNNLSIVILALRPSDEGTYECVVLKYEKDAFKREHLAEVTLSVKAD | 60.1 | 8 | 4950 | 0.1 | 3.8 | 481 | 0.1 |  |  | 
6 | variant CD155 IgV-Fc S52L (Fc fusion, not shown: a dimerising Fc or GST) WPPPGTGDVVVQAPTQVPGFLGDSVTLPCYLQVPNMEVTHVSQLTWARHGELGSMAVFHQTQGPSYSESKRLEFVAARLGAELRNASLRMFGLRVEDEGNYTCLFVTFPQGSRSVDIWLRVL |  |  |  |  |  |  |  | 2680 | 2220 | 
7 | variant CD155 IgV-Fc S42N/L104Q/G111R (Fc fusion, not shown: a dimerising Fc or GST) WPPPGTGDVVVQAPTQVPGFLGDSVTLPCYLQVPNMEVTHVNQLTWARHGESGSMAVFHQTQGPSYSESKRLEFVAARLGAELRNASLRMFGLRVEDEGNYTCQFVTFPQRSRSVDIWLRVL |  |  |  |  |  |  |  | 2310 | 2430 | 1960
8 | variant CD155 IgV-Fc S42A/S52L/L104E/G111R (Fc fusion, not shown: a dimerising Fc or GST) WPPPGTGDVVVQAPTQVPGFLGDSVTLPCYLQVPNMEVTHVAQLTWARHGELGSMAVFHQTQGPSYSESKRLEFVAARLGAELRNASLRMFGLRVEDEGNYTCEFVTFPQRSRSVDIWLRVL |  |  |  |  |  |  |  | 1890 | 2260 | 1610
9 | variant CD155 IgV-Fc S42L/S52Q/L104E (Fc fusion, not shown: a dimerising Fc or GST) WPPPGTGDVVVQAPTQVPGFLGDSVTLPCYLQVPNMEVTHVLQLTWARHGEQGSMAVFHQTQGPSYSESKRLEFVAARLGAELRNASLRMFGLRVEDEGNYTCEFVTFPQGSRSVDIWLRVL |  |  |  |  |  |  |  | 6470 | 1950 | 1700
10 | variant CD155 IgV-Fc Q62F/L104E/G111R (Fc fusion, not shown: a dimerising Fc or GST) WPPPGTGDVVVQAPTQVPGFLGDSVTLPCYLQVPNMEVTHVSQLTWARHGESGSMAVFHQTFGPSYSESKRLEFVAARLGAELRNASLRMFGLRVEDEGNYTCEFVTFPQRSRSVDIWLRVL |  |  |  |  |  |  |  | 2040 | 1970 | 1520
11 | variant CD155 IgV-Fc S42Q (Fc fusion, not shown: a dimerising Fc or GST) WPPPGTGDVVVQAPTQVPGFLGDSVTLPCYLQVPNMEVTHVQQLTWARHGESGSMAVFHQTQGPSYSESKRLEFVAARLGAELRNASLRMFGLRVEDEGNYTCLFVTFPQGSRSVDIWLRVL |  |  |  |  |  |  |  | 2230 | 2070 | 2140
12 | variant CD155 IgV-Fc S42A/L104Q/G111R (Fc fusion, not shown: a dimerising Fc or GST) WPPPGTGDVVVQAPTQVPGFLGDSVTLPCYLQVPNMEVTHVAQLTWARHGESGSMAVFHQTQGPSYSESKRLEFVAARLGAELRNASLRMFGLRVEDEGNYTCQFVTFPQRSRSVDIWLRVL |  |  |  |  |  |  |  | 1900 | 1920 | 1700
13 | variant CD155 IgV-Fc S42N/S52Q/Q62F (Fc fusion, not shown: a dimerising Fc or GST) WPPPGTGDVVVQAPTQVPGFLGDSVTLPCYLQVPNMEVTHVNQLTWARHGEQGSMAVFHQTFGPSYSESKRLEFVAARLGAELRNASLRMFGLRVEDEGNYTCLFVTFPQGSRSVDIWLRVL |  |  |  |  |  |  |  | 2150 | 2400 | 1740
14 | variant CD155 IgV-Fc S42L/S52L/Q62F/L104Q (Fc fusion, not shown: a dimerising Fc or GST) WPPPGTGDVVVQAPTQVPGFLGDSVTLPCYLQVPNMEVTHVLQLTWARHGELGSMAVFHQTFGPSYSESKRLEFVAARLGAELRNASLRMFGLRVEDEGNYTCQFVTFPQGSRSVDIWLRVL |  |  |  |  |  |  |  | 2640 | 2020 | 2320
15 | variant CD155 IgV-Fc S42A/S52Q/L104Q/G111R (Fc fusion, not shown: a dimerising Fc or GST) WPPPGTGDVVVQAPTQVPGFLGDSVTLPCYLQVPNMEVTHVAQLTWARHGEQGSMAVFHQTQGPSYSESKRLEFVAARLGAELRNASLRMFGLRVEDEGNYTCQFVTFPQRSRSVDIWLRVL |  |  |  |  |  |  |  | 2160 | 1810 | 1640
16 | variant CD155 IgV-Fc Q62Y (Fc fusion, not shown: a dimerising Fc or GST) WPPPGTGDVVVQAPTQVPGFLGDSVTLPCYLQVPNMEVTHVSQLTWARHGESGSMAVFHQTYGPSYSESKRLEFVAARLGAELRNASLRMFGLRVEDEGNYTCLFVTFPQGSRSVDIWLRVL |  |  |  |  |  |  |  | 2620 | 2530 | 1830
17 | variant CD155 IgV-Fc S42C (Fc fusion, not shown: a dimerising Fc or GST) WPPPGTGDVVVQAPTQVPGFLGDSVTLPCYLQVPNMEVTHVCQLTWARHGESGSMAVFHQTQGPSYSESKRLEFVAARLGAELRNASLRMFGLRVEDEGNYTCLFVTFPQGSRSVDIWLRVL |  |  |  |  |  |  |  | 2100 | 1910 | 1590
18 | variant CD155 IgV-Fc Q62F (Fc fusion, not shown: a dimerising Fc or GST) WPPPGTGDVVVQAPTQVPGFLGDSVTLPCYLQVPNMEVTHVSQLTWARHGESGSMAVFHQTFGPSYSESKRLEFVAARLGAELRNASLRMFGLRVEDEGNYTCLFVTFPQGSRSVDIWLRVL |  |  |  |  |  |  |  | 2570 | 2210 | 2760
